The assay concerns the target T1, GαoA, wild type, full-length, hexahistidine-tagged (UniProt P09471 1-354).
T1 construct: also called wild type GαoA
Nature of the assay: SPR; Biacore 3000; GST-RGS12 RGS domain captured on anti-GST antibody on a CM5 chip; Gαo injected in the GDP·AlF4- state; equilibrium binding isotherm. As to conditions: both partners purified.

As a reminder, the Kd is the constant that tells how readily two partners part at equilibrium.

T1 sequence (P09471 whole entry): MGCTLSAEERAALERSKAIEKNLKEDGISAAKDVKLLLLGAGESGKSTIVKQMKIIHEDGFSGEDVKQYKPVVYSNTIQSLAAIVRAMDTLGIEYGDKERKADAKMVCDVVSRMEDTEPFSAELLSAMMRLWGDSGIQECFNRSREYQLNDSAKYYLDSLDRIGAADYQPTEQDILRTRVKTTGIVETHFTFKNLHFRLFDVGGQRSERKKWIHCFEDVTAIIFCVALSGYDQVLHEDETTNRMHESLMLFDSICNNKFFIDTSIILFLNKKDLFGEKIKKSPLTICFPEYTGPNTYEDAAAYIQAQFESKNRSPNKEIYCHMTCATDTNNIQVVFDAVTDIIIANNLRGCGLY

B1: GST fusion of the RGS12 RGS domain (aa 664–885) (domain or fragment, UniProt O14924 664-885, looked up)
chain: DLESATVSDGELTGADLKDCVSNNSLSSNASLPSVQSCRRLRERRVASWAVSFERLLQDPVGVRYFSDFLRKEFSEENILFWQACEYFNHVPAHDKKELSYRAREIFSKFLCSKATTPVNIDSQAQLADDVLRAPHPDMFKEQQLQIFNLMKFDSYTRFLKSPLYQECILAEVEGRALPDSQQVPSSPASKHSLGSDHSSVSTPKKLSGKSKSGRSLNEELG
notes: also called GST-RGS12
In turn, B1 yielded a Kd of 1270 nM.

Source of the values: article PMC3285607, “A P-loop Mutation in Gα Subunits Prevents Transition to the Active State: Implications for G-protein Signaling in Fungal Pathogenesis” (PLoS Pathogens, 2012).
